The target in the data set is hnRNP D0 isoform 3, Myc-DDK-tagged (Origene RC200660) (UniProt Q14103-3 1-306). The data set is described as follows: EMSA. (Mobility shift assays separate free from complexed probe on a gel.)

B1: rs678849 T allele probe (dsDNA)
DNA 1: TCAAAAGTACCTGCT
DNA 2: AGCAGGTACTTTTGA
Consider B1, for which the binding result is reported as “binds”.

(Values after publication PMC10311464.)
